{
  "source": "patent US20060210984A1",
  "key": {"IL-8 (human) [1]": {"target": "IL-8 (human) (UniProt P10145)", "sequence (P10145 28-99 limits assumed)": "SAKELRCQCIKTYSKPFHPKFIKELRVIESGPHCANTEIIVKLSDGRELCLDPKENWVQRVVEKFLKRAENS", "experiment": "sandwich microarray in flow cell, chemiluminescence, cytokine 1 ng/ml; Chip 5"}, "IL-8 (human) [2]": {"target": "IL-8 (human) (UniProt P10145)", "experiment": "sandwich microarray in flow cell, chemiluminescence, cytokine 1 ng/ml; Chip 2"}, "IL-8 (human) [3]": {"target": "IL-8 (human) (UniProt P10145)", "experiment": "sandwich microarray in flow cell, chemiluminescence, cytokine 1 ng/ml, divided by chip-specific PNA calibration factor; Chip 3"}, "IL-8 (human) [4]": {"target": "IL-8 (human) (UniProt P10145)", "experiment": "sandwich microarray in flow cell, chemiluminescence, cytokine 1 ng/ml; Chip 4"}, "IL-8 (human) [5]": {"target": "IL-8 (human) (UniProt P10145)", "experiment": "sandwich microarray in flow cell, chemiluminescence, cytokine 1 ng/ml, divided by chip-specific PNA calibration factor; Chip 5"}, "IL-8 (human) [6]": {"target": "IL-8 (human) (UniProt P10145)", "experiment": "sandwich microarray in flow cell, chemiluminescence, cytokine 1 ng/ml, divided by chip-specific PNA calibration factor; AVG of Chips 1-5"}, "IL-8 (human) [7]": {"target": "IL-8 (human) (UniProt P10145)", "experiment": "sandwich microarray in flow cell, chemiluminescence, cytokine 1 ng/ml, divided by chip-specific PNA calibration factor; Chip 4"}, "IL-8 (human) [8]": {"target": "IL-8 (human) (UniProt P10145)", "experiment": "sandwich microarray in flow cell, chemiluminescence, cytokine 1 ng/ml; AVG of Chips 1-5"}, "IL-8 (human) [9]": {"target": "IL-8 (human) (UniProt P10145)", "experiment": "sandwich microarray in flow cell, chemiluminescence, cytokine 1 ng/ml, divided by chip-specific PNA calibration factor; Chip 1"}, "IL-8 (human) [10]": {"target": "IL-8 (human) (UniProt P10145)", "experiment": "sandwich microarray in flow cell, chemiluminescence, cytokine 1 ng/ml; Chip 1"}, "IL-8 (human) [11]": {"target": "IL-8 (human) (UniProt P10145)", "experiment": "sandwich microarray in flow cell, chemiluminescence, cytokine 1 ng/ml, divided by chip-specific PNA calibration factor; Chip 2"}, "IL-8 (human) [12]": {"target": "IL-8 (human) (UniProt P10145)", "experiment": "sandwich microarray in flow cell, chemiluminescence, cytokine 1 ng/ml; Chip 3"}, "IL-10 (human) [13]": {"target": "IL-10 (human) (UniProt P22301)", "sequence (P22301 19-178 limits assumed)": "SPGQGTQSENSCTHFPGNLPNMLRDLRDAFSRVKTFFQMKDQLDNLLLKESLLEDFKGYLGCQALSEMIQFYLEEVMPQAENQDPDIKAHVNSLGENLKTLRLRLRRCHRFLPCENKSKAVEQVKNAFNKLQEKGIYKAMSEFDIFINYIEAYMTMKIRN", "experiment": "sandwich microarray in flow cell, chemiluminescence, cytokine 1 ng/ml; Chip 5"}, "IL-10 (human) [14]": {"target": "IL-10 (human) (UniProt P22301)", "experiment": "sandwich microarray in flow cell, chemiluminescence, cytokine 1 ng/ml; Chip 2"}, "IL-10 (human) [15]": {"target": "IL-10 (human) (UniProt P22301)", "experiment": "sandwich microarray in flow cell, chemiluminescence, cytokine 1 ng/ml, divided by chip-specific PNA calibration factor; Chip 3"}, "IL-10 (human) [16]": {"target": "IL-10 (human) (UniProt P22301)", "experiment": "sandwich microarray in flow cell, chemiluminescence, cytokine 1 ng/ml; Chip 4"}, "IL-10 (human) [17]": {"target": "IL-10 (human) (UniProt P22301)", "experiment": "sandwich microarray in flow cell, chemiluminescence, cytokine 1 ng/ml, divided by chip-specific PNA calibration factor; Chip 5"}, "IL-10 (human) [18]": {"target": "IL-10 (human) (UniProt P22301)", "experiment": "sandwich microarray in flow cell, chemiluminescence, cytokine 1 ng/ml, divided by chip-specific PNA calibration factor; AVG of Chips 1-5"}, "IL-10 (human) [19]": {"target": "IL-10 (human) (UniProt P22301)", "experiment": "sandwich microarray in flow cell, chemiluminescence, cytokine 1 ng/ml, divided by chip-specific PNA calibration factor; Chip 4"}, "IL-10 (human) [20]": {"target": "IL-10 (human) (UniProt P22301)", "experiment": "sandwich microarray in flow cell, chemiluminescence, cytokine 1 ng/ml; AVG of Chips 1-5"}, "IL-10 (human) [21]": {"target": "IL-10 (human) (UniProt P22301)", "experiment": "sandwich microarray in flow cell, chemiluminescence, cytokine 1 ng/ml, divided by chip-specific PNA calibration factor; Chip 1"}, "IL-10 (human) [22]": {"target": "IL-10 (human) (UniProt P22301)", "experiment": "sandwich microarray in flow cell, chemiluminescence, cytokine 1 ng/ml; Chip 1"}, "IL-10 (human) [23]": {"target": "IL-10 (human) (UniProt P22301)", "experiment": "sandwich microarray in flow cell, chemiluminescence, cytokine 1 ng/ml, divided by chip-specific PNA calibration factor; Chip 2"}, "IL-10 (human) [24]": {"target": "IL-10 (human) (UniProt P22301)", "experiment": "sandwich microarray in flow cell, chemiluminescence, cytokine 1 ng/ml; Chip 3"}, "IL-12p40 (human) [25]": {"target": "IL-12p40 (human) (UniProt P29460)", "sequence (P29460 23-328 limits assumed)": "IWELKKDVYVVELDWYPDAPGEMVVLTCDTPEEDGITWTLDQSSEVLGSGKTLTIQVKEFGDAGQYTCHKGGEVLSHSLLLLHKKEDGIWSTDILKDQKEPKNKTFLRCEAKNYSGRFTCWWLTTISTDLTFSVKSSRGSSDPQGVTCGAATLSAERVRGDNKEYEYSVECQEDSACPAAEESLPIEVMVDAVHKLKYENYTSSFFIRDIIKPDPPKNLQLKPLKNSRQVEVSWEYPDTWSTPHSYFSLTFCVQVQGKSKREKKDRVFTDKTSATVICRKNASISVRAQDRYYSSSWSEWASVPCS", "experiment": "sandwich microarray in flow cell, chemiluminescence, cytokine 1 ng/ml; Chip 5"}, "IL-12p40 (human) [26]": {"target": "IL-12p40 (human) (UniProt P29460)", "experiment": "sandwich microarray in flow cell, chemiluminescence, cytokine 1 ng/ml; Chip 2"}, "IL-12p40 (human) [27]": {"target": "IL-12p40 (human) (UniProt P29460)", "experiment": "sandwich microarray in flow cell, chemiluminescence, cytokine 1 ng/ml, divided by chip-specific PNA calibration factor; Chip 3"}, "IL-12p40 (human) [28]": {"target": "IL-12p40 (human) (UniProt P29460)", "experiment": "sandwich microarray in flow cell, chemiluminescence, cytokine 1 ng/ml; Chip 4"}, "IL-12p40 (human) [29]": {"target": "IL-12p40 (human) (UniProt P29460)", "experiment": "sandwich microarray in flow cell, chemiluminescence, cytokine 1 ng/ml, divided by chip-specific PNA calibration factor; Chip 5"}, "IL-12p40 (human) [30]": {"target": "IL-12p40 (human) (UniProt P29460)", "experiment": "sandwich microarray in flow cell, chemiluminescence, cytokine 1 ng/ml, divided by chip-specific PNA calibration factor; AVG of Chips 1-5"}, "IL-12p40 (human) [31]": {"target": "IL-12p40 (human) (UniProt P29460)", "experiment": "sandwich microarray in flow cell, chemiluminescence, cytokine 1 ng/ml, divided by chip-specific PNA calibration factor; Chip 4"}, "IL-12p40 (human) [32]": {"target": "IL-12p40 (human) (UniProt P29460)", "experiment": "sandwich microarray in flow cell, chemiluminescence, cytokine 1 ng/ml; AVG of Chips 1-5"}, "IL-12p40 (human) [33]": {"target": "IL-12p40 (human) (UniProt P29460)", "experiment": "sandwich microarray in flow cell, chemiluminescence, cytokine 1 ng/ml, divided by chip-specific PNA calibration factor; Chip 1"}, "IL-12p40 (human) [34]": {"target": "IL-12p40 (human) (UniProt P29460)", "experiment": "sandwich microarray in flow cell, chemiluminescence, cytokine 1 ng/ml; Chip 1"}, "IL-12p40 (human) [35]": {"target": "IL-12p40 (human) (UniProt P29460)", "experiment": "sandwich microarray in flow cell, chemiluminescence, cytokine 1 ng/ml, divided by chip-specific PNA calibration factor; Chip 2"}, "IL-12p40 (human) [36]": {"target": "IL-12p40 (human) (UniProt P29460)", "experiment": "sandwich microarray in flow cell, chemiluminescence, cytokine 1 ng/ml; Chip 3"}},
  "data": [
    {"substance": "MAb IL-8 (monoclonal capture antibody of the anti-human IL-8 OptEIA matched pair, BD Biosciences-Pharmingen)", "values": [
      {"measurement": "chemiluminescent spot intensity (Un-Calibrated Data)", "setting": "IL-8 (human) [1]", "result": 905},
      {"measurement": "chemiluminescent spot intensity (Un-Calibrated Data)", "setting": "IL-8 (human) [2]", "result": 804},
      {"measurement": "chemiluminescent spot intensity (Calibrated Data)", "setting": "IL-8 (human) [3]", "result": 3100},
      {"measurement": "chemiluminescent spot intensity (Un-Calibrated Data)", "setting": "IL-8 (human) [4]", "result": 1320},
      {"measurement": "chemiluminescent spot intensity (Calibrated Data)", "setting": "IL-8 (human) [5]", "result": 2790},
      {"measurement": "chemiluminescent spot intensity (Calibrated Data)", "setting": "IL-8 (human) [6]", "result": 2900},
      {"measurement": "chemiluminescent spot intensity (Calibrated Data)", "setting": "IL-8 (human) [7]", "result": 2900},
      {"measurement": "chemiluminescent spot intensity (Un-Calibrated Data)", "setting": "IL-8 (human) [8]", "result": 1580},
      {"measurement": "chemiluminescent spot intensity (Calibrated Data)", "setting": "IL-8 (human) [9]", "result": 2960},
      {"measurement": "chemiluminescent spot intensity (Un-Calibrated Data)", "setting": "IL-8 (human) [10]", "result": 1760},
      {"measurement": "chemiluminescent spot intensity (Calibrated Data)", "setting": "IL-8 (human) [11]", "result": 2750},
      {"measurement": "chemiluminescent spot intensity (Un-Calibrated Data)", "setting": "IL-8 (human) [12]", "result": 3100}
    ]},
    {"substance": "MAb IL-10 (monoclonal capture antibody of the anti-human IL-10 OptEIA matched pair, BD Biosciences-Pharmingen)", "values": [
      {"measurement": "chemiluminescent spot intensity (Un-Calibrated Data)", "setting": "IL-10 (human) [13]", "result": 414},
      {"measurement": "chemiluminescent spot intensity (Un-Calibrated Data)", "setting": "IL-10 (human) [14]", "result": 389},
      {"measurement": "chemiluminescent spot intensity (Calibrated Data)", "setting": "IL-10 (human) [15]", "result": 1360},
      {"measurement": "chemiluminescent spot intensity (Un-Calibrated Data)", "setting": "IL-10 (human) [16]", "result": 508},
      {"measurement": "chemiluminescent spot intensity (Calibrated Data)", "setting": "IL-10 (human) [17]", "result": 1280},
      {"measurement": "chemiluminescent spot intensity (Calibrated Data)", "setting": "IL-10 (human) [18]", "result": 1280},
      {"measurement": "chemiluminescent spot intensity (Calibrated Data)", "setting": "IL-10 (human) [19]", "result": 1120},
      {"measurement": "chemiluminescent spot intensity (Un-Calibrated Data)", "setting": "IL-10 (human) [20]", "result": 691},
      {"measurement": "chemiluminescent spot intensity (Calibrated Data)", "setting": "IL-10 (human) [21]", "result": 1320},
      {"measurement": "chemiluminescent spot intensity (Un-Calibrated Data)", "setting": "IL-10 (human) [22]", "result": 788},
      {"measurement": "chemiluminescent spot intensity (Calibrated Data)", "setting": "IL-10 (human) [23]", "result": 1330},
      {"measurement": "chemiluminescent spot intensity (Un-Calibrated Data)", "setting": "IL-10 (human) [24]", "result": 1360}
    ]},
    {"substance": "MAb IL-12p40 (monoclonal capture antibody of the anti-human IL-12p40 OptEIA matched pair, BD Biosciences-Pharmingen)", "values": [
      {"measurement": "chemiluminescent spot intensity (Un-Calibrated Data)", "setting": "IL-12p40 (human) [25]", "result": 87},
      {"measurement": "chemiluminescent spot intensity (Un-Calibrated Data)", "setting": "IL-12p40 (human) [26]", "result": 79},
      {"measurement": "chemiluminescent spot intensity (Calibrated Data)", "setting": "IL-12p40 (human) [27]", "result": 312},
      {"measurement": "chemiluminescent spot intensity (Un-Calibrated Data)", "setting": "IL-12p40 (human) [28]", "result": 125},
      {"measurement": "chemiluminescent spot intensity (Calibrated Data)", "setting": "IL-12p40 (human) [29]", "result": 268},
      {"measurement": "chemiluminescent spot intensity (Calibrated Data)", "setting": "IL-12p40 (human) [30]", "result": 285},
      {"measurement": "chemiluminescent spot intensity (Calibrated Data)", "setting": "IL-12p40 (human) [31]", "result": 275},
      {"measurement": "chemiluminescent spot intensity (Un-Calibrated Data)", "setting": "IL-12p40 (human) [32]", "result": 156},
      {"measurement": "chemiluminescent spot intensity (Calibrated Data)", "setting": "IL-12p40 (human) [33]", "result": 300},
      {"measurement": "chemiluminescent spot intensity (Un-Calibrated Data)", "setting": "IL-12p40 (human) [34]", "result": 179},
      {"measurement": "chemiluminescent spot intensity (Calibrated Data)", "setting": "IL-12p40 (human) [35]", "result": 270},
      {"measurement": "chemiluminescent spot intensity (Un-Calibrated Data)", "setting": "IL-12p40 (human) [36]", "result": 312}
    ]}
  ]
}
